Results published in the supplement of paper PMC9112550, “Optimization of the antimicrobial peptide Bac7 by deep mutational scanning” (BMC Biology, 2022).

Tested on: Escherichia coli TOP10
Experiment: shrunken log2 fold change of peptide-encoding DNA abundance (4.5 h post-induction vs induction); higher = less antimicrobial activity (less host growth inhibition)
Conditions: time post-induction: 4.5 h; library: site-saturation at positions 5, 18, 19, 20
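Further: peptides expressed intracellularly from a pBAD plasmid library in pooled LB shake-flask culture, induced with 0.3% L-arabinose, DNA abundance read by NGS, three biological replicates, DESeq2 with apeglm shrinkage.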

Sequence	shrunken log2 fold change
RRIRHRPPRLPRPRPRPSEYPRP	-0.787
RRIRLRPPRLPRPRPRPGCDPRP	0.261
RRIRARPPRLPRPRPRPYSAPRP	-0.256
RRIRVRPPRLPRPRPRPHEVPRP	-0.0408
RRIRTRPPRLPRPRPRPNWMPRP	0.286
RRIRWRPPRLPRPRPRPTMIPRP	-0.0926
RRIRARPPRLPRPRPRPGVQPRP	0.0878
RRIRNRPPRLPRPRPRPNINPRP	-0.638
RRIRERPPRLPRPRPRPVLRPRP	-0.156
RRIRPRPPRLPRPRPRPGCCPRP	0.343
RRIRTRPPRLPRPRPRPLTTPRP	-0.0573
RRIRARPPRLPRPRPRPAIGPRP	0.714
RRIRMRPPRLPRPRPRPEIMPRP	2.57
RRIRKRPPRLPRPRPRPCKIPRP	-0.248
RRIRERPPRLPRPRPRPNPAPRP	0.0424
RRIRARPPRLPRPRPRPWDIPRP	0.173
RRIRIRPPRLPRPRPRPLPNPRP	-0.217
RRIRIRPPRLPRPRPRPPYCPRP	-0.328
RRIRLRPPRLPRPRPRPVKIPRP	-0.169
RRIRCRPPRLPRPRPRPWWKPRP	-0.334
RRIRVRPPRLPRPRPRPQPVPRP	-0.195
RRIRRRPPRLPRPRPRPVYAPRP	0.21
RRIRRRPPRLPRPRPRPDCDPRP	0.222

Sequence	shrunken log2 fold change
RRIRYRPPRLPRPRPRPHNLPRP	-0.131
RRIRARPPRLPRPRPRPCLKPRP	-0.0264
RRIRGRPPRLPRPRPRPIPEPRP	0.462
RRIRFRPPRLPRPRPRPRLIPRP	-0.261
RRIRVRPPRLPRPRPRPYALPRP	-0.848
RRIRIRPPRLPRPRPRPWWIPRP	-0.0829
RRIRNRPPRLPRPRPRPCDKPRP	0.14
RRIRARPPRLPRPRPRPMWCPRP	0.172
RRIRHRPPRLPRPRPRPIMYPRP	-0.169
RRIRSRPPRLPRPRPRPWHYPRP	-0.162
RRIRNRPPRLPRPRPRPNQPPRP	-0.055
RRIRMRPPRLPRPRPRPEMAPRP	3.69
RRIRMRPPRLPRPRPRPICVPRP	0.196
RRIRNRPPRLPRPRPRPFGTPRP	-0.214
RRIRHRPPRLPRPRPRPNIEPRP	-0.172
RRIRGRPPRLPRPRPRPNDHPRP	0.143
RRIRKRPPRLPRPRPRPVEEPRP	0.695
RRIRYRPPRLPRPRPRPPTSPRP	-0.0241
RRIRSRPPRLPRPRPRPMAGPRP	0.119
RRIRGRPPRLPRPRPRPGLQPRP	0.236
RRIRERPPRLPRPRPRPTDRPRP	0.0616
RRIRLRPPRLPRPRPRPFYSPRP	-0.133
RRIRYRPPRLPRPRPRPAMLPRP	-0.372

Sequence	shrunken log2 fold change
RRIRARPPRLPRPRPRPHPYPRP	-0.484
RRIRLRPPRLPRPRPRPECDPRP	-0.00082
RRIRNRPPRLPRPRPRPSNQPRP	-0.299
RRIRHRPPRLPRPRPRPECNPRP	-0.0866
RRIRQRPPRLPRPRPRPYYWPRP	0.0316
RRIRSRPPRLPRPRPRPSGMPRP	-0.311
RRIRCRPPRLPRPRPRPTWAPRP	0.118
RRIRTRPPRLPRPRPRPPILPRP	0.112
RRIRDRPPRLPRPRPRPCGNPRP	0.104
RRIRSRPPRLPRPRPRPDQPPRP	0.0272
RRIRPRPPRLPRPRPRPLQPPRP	0.273
RRIRKRPPRLPRPRPRPRQCPRP	-0.0759
RRIRLRPPRLPRPRPRPLIIPRP	-0.631
RRIRFRPPRLPRPRPRPRKAPRP	0.182
RRIRTRPPRLPRPRPRPDDWPRP	0.276
RRIRNRPPRLPRPRPRPATAPRP	0.0174
RRIRWRPPRLPRPRPRPSEAPRP	0.0701
RRIRFRPPRLPRPRPRPKCHPRP	-0.42
RRIRHRPPRLPRPRPRPTITPRP	-0.384
RRIRERPPRLPRPRPRPLKMPRP	-0.175
RRIRKRPPRLPRPRPRPFRSPRP	0.0452
RRIRARPPRLPRPRPRPSIEPRP	0.0128
RRIRWRPPRLPRPRPRPNSPPRP	-0.255

Sequence	shrunken log2 fold change
RRIRARPPRLPRPRPRPPTWPRP	1.67
RRIRLRPPRLPRPRPRPQKHPRP	-0.299
RRIRSRPPRLPRPRPRPNQTPRP	0.0606
RRIRMRPPRLPRPRPRPFRHPRP	0.0701
RRIRYRPPRLPRPRPRPNKSPRP	-0.941
RRIRFRPPRLPRPRPRPFTSPRP	-0.316
RRIRVRPPRLPRPRPRPNFRPRP	0.19
RRIRIRPPRLPRPRPRPPQVPRP	0.328
RRIRTRPPRLPRPRPRPFGCPRP	-0.0582
RRIRLRPPRLPRPRPRPHECPRP	0.0907
RRIRKRPPRLPRPRPRPPTIPRP	0.119
RRIRVRPPRLPRPRPRPPDYPRP	-0.114
RRIRCRPPRLPRPRPRPRGGPRP	0.508
RRIRCRPPRLPRPRPRPIESPRP	0.204
RRIRSRPPRLPRPRPRPAPYPRP	0.265
RRIRWRPPRLPRPRPRPWFGPRP	-0.0254
RRIRKRPPRLPRPRPRPTRKPRP	3.78
RRIRLRPPRLPRPRPRPMISPRP	0.00361
RRIRIRPPRLPRPRPRPVYFPRP	-0.807
RRIRARPPRLPRPRPRPHLPPRP	0.0943
RRIRCRPPRLPRPRPRPSNYPRP	-0.348
RRIRFRPPRLPRPRPRPSEMPRP	-0.148
